Article PMC8304084, “A Concerted Action of UBA5 C-Terminal Unstructured Regions Is Important for Transfer of Activated UFM1 to UFC1” (International Journal of Molecular Sciences, 2021)

How the values were obtained:
Assay type in all cases: binding
AD^1–330 = assay: NMR titration of R1-R2-R3^325–404 with UBA5 AD^1–330; details: 2-fold molar excess of AD^1–330, 900 MHz
Description: All NMR experiments were performed at a sample temperature of 25 °C on Bruker 600, 700, 800, 900, and 950 MHz spectrometers equipped with cryogenic probes, and a 500 MHz spectrometer equipped with a room-temperature triple-resonance probe. All NMR spectra were analyzed with the Sparky 3.114 software (University of California, San Francisco, USA). For NMR titration experiments, the non-labeled UBA5 peptides were titrated to 100 µM ^13C,^15N-labeled UFC1 to a final molar ratio of 1:8 (UFC1:UBA5 peptide). Conversely, 100 µM ^13C,^15N-labeled UBA5 peptides were titrated with non-labeled UFC1 to a final molar ratio 1:4 (UBA5 peptide:UFC1). 2D ^1H-^15N correlation spectra ([^15N,^1H] TROSY-HSQC) were recorded at each titration point. The same types of spectra were recorded to estimate binding of ^13C,^15N-labeled UFC1 (75 µM) to non-labeled UBA5, UBA5~UFM1 and UFM1 at 1:2 molar ratios. CSP values, Δδ, were calculated for each individual amide group using the formula Δδ = [(ΔδN/5)^2 + Δδ^2HN)]^1/2. […]
experiment, non‐labelled AD1–330 construct was added to the 15N‐labelled R1‐R2‐R3325–404 peptide to a 2‐fold molar excess.
Representative area of [15N,1H] TROSY‐HSQC spectra recorded at 900 MHz for R1‐R2‐R3325–404 in free form (red contours) and in presence of AD1–330 (blue contours) are overlaid. […]

GABARAPL2 = target: T1, GABARAPL2 (Homo sapiens, UniProt P60520); assay: ITC, UBA5 peptides vs GABARAPL2; details: 25 °C
T1 construct: modified ubiquitin tag (Ub19) with TEV site (N, cleaved yes); made in house; host or cells: E. coli T7 Express
T1 sequence (P60520 3-116): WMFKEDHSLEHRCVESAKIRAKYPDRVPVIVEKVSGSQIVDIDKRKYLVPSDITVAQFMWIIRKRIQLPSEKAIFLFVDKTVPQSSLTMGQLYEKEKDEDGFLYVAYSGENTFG
Description: (§1) To understand how the UBA5 C-terminus participates in the ufmylation cascade, we performed isothermal titration calorimetry (ITC) experiments, in which we titrated UBA5 C-terminal peptides (see Table 1) to the UBA5 AD, UFC1, UFM1 and representative LC3/GABARAP proteins (Figure 2A, Supplementary Figure S2A–D and Table 2).
(§2) All proteins and peptides were expressed in E.Coli T7 Express (New England Biolabs GmbH, Frankfurt, Germany) cells in LB or M9 (to obtain ^15N- and ^13C,^15N-labeled polypeptides) media according to the protocol described in [33, 36]. For protein purification, bacterial cell pellets were resuspended in lysis buffer (50 mM Tris-HCl pH = 7.5, 100 mM NaCl, 5% glycerol, 5 mM PIC (protease inhibitor cocktail)) and lysed via sonication (TT13 Sonotrode, 40% amplitude, for 6 × 1 min with a 0.5/0.5-s pulse). Lysates were centrifuged for 45 min at 17,000× g at 4 °C. Supernatants were loaded onto a His Trap Fast Flow 5 mL column (GE Healthcare, München, Germany) equilibrated in loading buffer (50 mM Tris-HCl pH = 8.0, 250 mM NaCl, 1% glycerol, 20 mM imidazole). The column was washed with loading buffer for 5–10 CV and protein was eluted with elution buffer (50 mM Tris-HCl pH = 8, 250 mM NaCl, 1% glycerol, 400 mM imidazole). Simultaneous TEV cleavage (1 mg TEV protease was added to 100 mg peptides/proteins) and buffer exchange to loading buffer via dialysis was performed over night at 4 °C. After reverse IMAC, proteins were concentrated with conical concentrators (Millipore Merck, Darmstadt, Germany) and loaded on a Superdex 10/60 75 or 200 column (GE Healthcare, München, Germany) for further purification and equilibration with ITC/NMR buffer (25 mM HEPES pH = 7.5, 100 mM NaCl). For structural NMR spectroscopy, buffer containing 50 mM Tris-HCl pH = 7.5, 100 mM NaCl was used. Prior to NMR experiments, TCEP and protease inhibitors cocktail were added to the samples to final concentrations 1 and 5 mM, respectively. Purified peptides and protein were concentrated and stored at −80 °C. The protein and peptide concentrations were calculated from the UV absorption at 280 nm by Nanodrop spectrophotometer (Thermo Scientific, Langenselbold, Germany).
(§3) All ITC experiments were performed at 25 °C using a VP-ITC microcalorimeter (Malvern Panalytical Ltd., Malvern, UK). Peptides in concentration of ~400 µM were titrated into 20–25 µM solutions of corresponding binding partner at a stirring speed of 307 rpm. The raw data were corrected on the dilution heat of peptides obtained in independent experiment (titration of the peptide in syringe into the ITC/NMR buffer in the measuring cell). Pre-titration delay was set to 180 s, interval between titration steps was experimentally adjusted to avoid kinetic contribution to the observed heat effects and set to 200 s. A single ITC profile was collected for each type of interaction. The ITC data were analyzed based on a “one-site” binding model with MicroCal ITC software implemented in Origin 7.0.

UFC1 = target: T2, UFC1 (Homo sapiens, UniProt Q9Y3C8); assay: ITC, UBA5 constructs vs UFC1
T2 construct: Full length UFC1, residues 1–167; modified ubiquitin tag (Ub19) with TEV site (N, cleaved yes); made in house; host or cells: E. coli T7 Express
T2 sequence (Q9Y3C8 1-167): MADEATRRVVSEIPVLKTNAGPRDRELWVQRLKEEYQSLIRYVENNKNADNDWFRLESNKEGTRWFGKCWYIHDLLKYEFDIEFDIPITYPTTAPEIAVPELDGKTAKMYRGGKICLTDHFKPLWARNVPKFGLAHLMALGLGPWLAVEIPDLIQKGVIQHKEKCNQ
Description: as §1
To investigate if conjugation of UFM1 to the UBA5 catalytic cysteine (C250) affects the UFC1:UBA5 interactions, we prepared full length UBA5 C250K mutant and stably conjugated UFM1 to it as reported before for a number of ubiquitin-specific E2 enzymes. We compared the UFC1 spectra after addition of a twofold molar excess of FL^1–404 and FL^1–404 C250K~UFM1 constructs (Supplementary Figure S5C).
as §2, §3

Substance: R1-R2-R3^325–404: UBA5 C-terminal part, residues 325–404 (recombinant, E. coli)
- interaction with UBA5 AD (AD^1–330): No interactions
- ΔG (GABARAPL2; vs GABARAPL2): -9.25 kcal/mol
- ΔS (GABARAPL2; vs GABARAPL2): 2.04 cal mol^−1 K^−1
- −T*ΔS (GABARAPL2; vs GABARAPL2): -0.61 kcal/mol
- KA*10^−6 (GABARAPL2; vs GABARAPL2, value is KA × 10^−6, ± = fitting error): 5.99 ± 0.49 M^−1
- N (UFC1; ITC stoichiometry, peptide vs UFC1, ± = fitting error): 1.03 ± 0.01
- affinity increase to UFC1 vs R3^388–404 (UFC1; ITC, 25 °C): 3 fold
- ΔG (UFC1; ITC, 25 °C, peptide vs UFC1): -7.66 kcal/mol
- −T*ΔS (UFC1; ITC, 25 °C, peptide vs UFC1): -0.62 kcal/mol
- ΔS (UFC1; ITC, 25 °C, peptide vs UFC1, one-site model, single profile): 2.09 cal mol^−1 K^−1
- KA*10^−6 (UFC1; ITC, 25 °C, peptide vs UFC1, value is KA × 10^−6, ± = fitting error): 0.41 ± 0.02 M^−1
- Kd (UFC1; ITC, VP-ITC, 25 °C, peptide ~400 µM titrated into 20–25 µM UFC1, 25 mM HEPES pH 7.5, 100 mM NaCl, one-site model, single ITC profile): 2400 nM
- ΔH (UFC1; ITC, VP-ITC, 25 °C, peptide ~400 µM titrated into 20–25 µM UFC1, 25 mM HEPES pH 7.5, 100 mM NaCl, one-site model, single ITC profile, ± = fitting error): -7.04 ± 0.07 kcal/mol
